{"source": "patent US20220273759A1", "about": "“PHARMACEUTICAL ASSOCIATION FOR CONVERTING A NEOPLASTIC CELL INTO A NON-NEOPLASTIC CELL AND USES THEREOF” (HISTIDE AG, priority 2015, published 2022)"}
{"target": "growth factor receptors", "experiment": "cell-based or functional assay", "settings": "not given", "units": {"p-Smad1/5/8 (%)": "%"}}
{"molecule": "KIPKASSVPTELSPISVLYK", "note": "[GFR-binding compound of SEQ ID NO: 87]", "p-Smad1/5/8 (%)": 32}
{"molecule": "VPTGQSAISMLYL", "note": "[GFR-binding compound of SEQ ID NO: 95]", "p-Smad1/5/8 (%)": 52}
{"molecule": "KVGKASSVPQKLEPLPIVYY", "note": "[GFR-binding compound of SEQ ID NO: 84]", "p-Smad1/5/8 (%)": 33}
{"molecule": "KIPKASSVPQELEPLPIVYY", "note": "[GFR-binding compound of SEQ ID NO: 74]", "p-Smad1/5/8 (%)": 44}
{"molecule": "TKPTSTPTKLSPINMLYF", "note": "[GFR-binding compound of SEQ ID NO: 65]", "p-Smad1/5/8 (%)": 36}
{"molecule": "HVPKPSSAPTKLEPISILYL", "note": "[GFR-binding compound of SEQ ID NO: 100]", "p-Smad1/5/8 (%)": 75}
{"molecule": "KVGKASSVPTKLEPISILYL", "note": "[GFR-binding compound of SEQ ID NO: 71]", "p-Smad1/5/8 (%)": 66}
{"molecule": "ASASPSSVSQDLEPLTILYY", "note": "[GFR-binding compound of SEQ ID NO: 78]", "p-Smad1/5/8 (%)": 52}
{"molecule": "GIPEPSSTPTKMSPINMLYF", "note": "[GFR-binding compound of SEQ ID NO: 94]", "p-Smad1/5/8 (%)": 39}
{"molecule": "ASAAPSSAPTALSATSVLYY", "note": "[GFR-binding compound of SEQ ID NO: 82]", "p-Smad1/5/8 (%)": 41}
{"molecule": "KASKASSVPQKLEPLPIVYY", "note": "[GFR-binding compound of SEQ ID NO: 85]", "p-Smad1/5/8 (%)": 22}
{"molecule": "ASASPSSVSQDLSSLSILFF", "note": "[GFR-binding compound of SEQ ID NO: 68]", "p-Smad1/5/8 (%)": 40}
{"molecule": "AVPKASSAPTKLEPISILYL", "note": "[GFR-binding compound of SEQ ID NO: 70]", "p-Smad1/5/8 (%)": 67}
{"molecule": "TQVKMRPVQVRKI", "note": "[GFR-binding compound of SEQ ID NO: 92]", "p-Smad1/5/8 (%)": 44}
{"molecule": "NDEGLESVPTEESAISMLYL", "note": "[GFR-binding compound of SEQ ID NO: 96]", "p-Smad1/5/8 (%)": 78}
{"molecule": "ASASPSSVPQDLRSVKVAKV", "note": "[GFR-binding compound of SEQ ID NO: 90]", "p-Smad1/5/8 (%)": 56}
{"molecule": "ASAAPSSVPQALEPLTILYY", "note": "[GFR-binding compound of SEQ ID NO: 77]", "p-Smad1/5/8 (%)": 55}
{"molecule": "YVPKPSSTPTKLSPINMLYF", "note": "[GFR-binding compound of SEQ ID NO: 66]", "p-Smad1/5/8 (%)": 38}
{"molecule": "SIPKASSVPQELEPLPIVYY", "note": "[GFR-binding compound of SEQ ID NO: 76]", "p-Smad1/5/8 (%)": 54}
{"molecule": "SSVKSQPSRVHHSPISILFI", "note": "[GFR-binding compound of SEQ ID NO: 97]", "p-Smad1/5/8 (%)": 39}
{"molecule": "GIPEPSSVPQKMEPLPIVYY", "note": "[GFR-binding compound of SEQ ID NO: 75]", "p-Smad1/5/8 (%)": 51}
{"molecule": "VSQDLRSVKVAKV", "note": "[GFR-binding compound of SEQ ID NO: 89]", "p-Smad1/5/8 (%)": 36}
{"molecule": "KIPKASSTPTELSPINMLYF", "note": "[GFR-binding compound of SEQ ID NO: 93]", "p-Smad1/5/8 (%)": 47}
{"molecule": "TVPKPSSAPTQLRSVKVAKV", "note": "[GFR-binding compound of SEQ ID NO: 83]", "p-Smad1/5/8 (%)": 35}
{"molecule": "SSVKSQPSRVHHKPLSMLYV", "note": "[GFR-binding compound of SEQ ID NO: 72]", "p-Smad1/5/8 (%)": 47}
{"molecule": "NDEGLESVPTEESSLSILFF", "note": "[GFR-binding compound of SEQ ID NO: 80]", "p-Smad1/5/8 (%)": 27}
{"molecule": "RNVQSRPVPTQLSPISVLYK", "note": "[GFR-binding compound of SEQ ID NO: 86]", "p-Smad1/5/8 (%)": 26}
{"molecule": "YVPKPSSAPTKLNAISVLYF", "note": "[GFR-binding compound of SEQ ID NO: 99]", "p-Smad1/5/8 (%)": 66}
{"molecule": "ASAAPSSVPQALSSLSILFF", "note": "[GFR-binding compound of SEQ ID NO: 67]", "p-Smad1/5/8 (%)": 38}
{"molecule": "RVPSTSSAPTKTSATSVLYY", "note": "[GFR-binding compound of SEQ ID NO: 81]", "p-Smad1/5/8 (%)": 34}
{"molecule": "ASAAPSSVPQALRSVKVAKV", "note": "[GFR-binding compound of SEQ ID NO: 88]", "p-Smad1/5/8 (%)": 37}
{"molecule": "NDEGLESVPTEEEPLTILYY", "note": "[GFR-binding compound of SEQ ID NO: 79]", "p-Smad1/5/8 (%)": 58}
{"molecule": "RNVQSRPTQVQLSPISILFI", "note": "[GFR-binding compound of SEQ ID NO: 98]", "p-Smad1/5/8 (%)": 34}
{"molecule": "NDEGLESVPTEERSVKVAKV", "note": "[GFR-binding compound of SEQ ID NO: 91]", "p-Smad1/5/8 (%)": 55}
{"molecule": "RNVQSRPTQVQLKPLSMLYV", "note": "[GFR-binding compound of SEQ ID NO: 73]", "p-Smad1/5/8 (%)": 48}
{"molecule": "VVPKPSSAPTQLEPISILYL", "note": "[GFR-binding compound of SEQ ID NO: 69]", "p-Smad1/5/8 (%)": 39}
{"molecule": "SIPKASSTPTELSPINMLYF", "note": "[GFR-binding compound of SEQ ID NO: 64]", "p-Smad1/5/8 (%)": 37}
{"system": "human osteosarcoma cells, MG63", "experiment": "Tumor cell recoding via quantification of pRB and p53 (immunofluorescence staining, ImageJ)", "format": "cell-based", "settings": "Table 6; peptide in association with PET; MG63 cells", "description": "The cells were first fixed for 20 min with 4% paraformaldehyde/PBS at 4° C. After fixation, the cells were permeabilized in PBS containing 1% Triton X-100 for 15 min. Protein immunofluorescent visualization was performed by first treating the cells with 1% (v/v) specific monoclonal antibodies for 1 hour at 37° C. Then the samples were incubated with Alexa Fluor® 568 or 647 (F(ab′)2 fragment of IgG(H+L)) during 30 min at room temperature. The cell nuclei were counterstained in 20 ng/mL DAPI for 10 min at room temperature.\nFor this type of quantification the freeware image analysis ImageJ® software was used. The raw image was first converted to an 8-bit file, and then the unsharp mask feature was used (settings 1:0.2) to remove the image background (rolling ball radius 10). After smoothing, the resulting image, which appears similar to the original photomicrograph but with minimal background, was then converted to a binary image by setting a threshold. Threshold values were determined empirically by selecting a setting, which gave the most accurate binary image for a subset of randomly selected photomicrographs. The cell area was determined by manual delineation on raw fluorescent images. Total contact area and mean contact area per cell were calculated by “analyse particules” in ImageJ®. A minimum of 50 cells per condition were analyzed.\nNeoplastic cells (in this example osteosarcoma cells) were cultured on pharmaceutical associations comprising PET as a bioactive carrier and one of GFR-binding compounds of SEQ ID NO: 11 to 14, 24 to 26 and 51 to 63. A rapid (24 hours) decrease of the tumor markers was observed (FIG. 7). The adhesion checkpoint then activates the tumor suppressor proteins p53 and pRB. […]", "units": {"P53 (%)": "%", "pRB (%)": "%"}}
{"molecule": "AASKASSVPQEEEPLPMVYY (Non-cyclic GFR-binding peptide) [SEQ ID NO: 207]", "P53 (%)": 24, "pRB (%)": 17}
{"molecule": "GIPEPSSAPTELSATSILYY (Non-cyclic GFR-binding peptide) [SEQ ID NO: 204]", "P53 (%)": 33, "pRB (%)": 16}
{"molecule": "GIPEPSSAPVDLKPLSTLYV (Non-cyclic GFR-binding peptide) [SEQ ID NO: 206]", "P53 (%)": 32, "pRB (%)": 12}
{"molecule": "KIPKASSVPTGGSNITVQIM (Non-cyclic GFR-binding peptide) [SEQ ID NO: 209]", "P53 (%)": 45, "pRB (%)": 11}
{"molecule": "KIPKASSVSQKMEPLTMLYY (Non-cyclic GFR-binding peptide) [SEQ ID NO: 208]", "P53 (%)": 30, "pRB (%)": 12}
{"molecule": "NDEGLESVPEDLSSLSVLFF (Non-cyclic GFR-binding peptide) [SEQ ID NO: 201]", "P53 (%)": 29, "pRB (%)": 12}
{"molecule": "RVPSTSSAPTKMNAISMLYF (Non-cyclic GFR-binding peptide) [SEQ ID NO: 203]", "P53 (%)": 31, "pRB (%)": 9}
{"molecule": "RVPSTSSVPTGQSAISTLYL (Non-cyclic GFR-binding peptide) [SEQ ID NO: 202]", "P53 (%)": 25, "pRB (%)": 10}
{"molecule": "STPPTSSVPTELSPISTLYK (Non-cyclic GFR-binding peptide) [SEQ ID NO: 205]", "P53 (%)": 41, "pRB (%)": 20}
